Measured values reported in the supplement of paper PMC7877785.
± gives the uncertainty stated by the source.

Assay: self-splicing fitness, log relative to wild type (ln ratio); higher = more splicing; Tetrahymena group I intron in knt gene, E. coli kanamycin selection, DiMSum; sequences stand for … in CUCUCU…GGAGGGAAAAGUUAUCAGGCAUGCACCUGGUAGCUAGUCUUUAAACCAAUAGAUUGCAUCGGUUUAAAAGGCAAGACCGUCAAAUUGCGGGAAAGGGGUCAACAGCCGUUCAGUACCAAGUCUCAGGGGAAACUUUGAGAUGGCCUUGCAAAGGGUAUGGUAAUAAGCUGACGGACAUGGUCCUAACCACGCAGCCAAGUCCUAAGUCAACAGAUCUUCUGUUGAUAUGGAUGCAGUUCACAGACUAAAUGUCGGUCGGGGAAGAUGUAUUCUUCUCAUAAGAUAUAGUCGGACCUCUCCUUAAUGGGAGCUAGCGGAUGAAGUGAUGCAACACUGGAGCCGCUGGGAACUAAUUUGUAUGCGAAAGUAUAUUGAUUAGUUUUGGAGUACUCGUGGUCG
Outline: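 Fitness was computed with DiMSum as the error-weighted combination of replicate fold changes, kanamycin versus none, each normalised to wild type. The library randomised all eight intron nucleotides of the P1ex region, with the intron placed in the knt kanamycin-resistance gene on pET-22b(+) in E. coli BL21(DE3). Six replicate transformations were grown overnight at 37°C or 30°C on LB agar with or without 25 μg/mL kanamycin, plus 100 μg/mL carbenicillin, 50 μM IPTG and 0.2% rhamnose. Pooled colonies were amplicon-sequenced on an Illumina HiSeq 2500.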

Sequence	self-splicing fitness (ln) (30 °C)	self-splicing fitness (ln) (37 °C)
UUGGAGCAAUAUUACGGUAA	-1.27 ± 0.26	-1.01 ± 0.27
UUGGAGCAAUAUUACGGUUU	-3.38 ± 0.31	-2.9 ± 0.47
UUGGAGCAAUAUUACGUAGA	-3.22 ± 0.27	-1.77 ± 0.18
UUGGAGCAAUAUUACGUAGG	-3.11 ± 0.23	-1.86 ± 0.15
UUGGAGCAAUAUUACGUAUA	-2.08 ± 0.44	
UUGGAGCAAUAUUACGUGAG	-1.84 ± 0.13	-1.54 ± 0.2
UUGGAGCAAUAUUACGUUAC	-3.66 ± 0.33	-2.25 ± 0.24
UUGGAGCAAUAUUACGUUUA	-2.44 ± 0.44	
UUGUAGCAAUAUUACGAAAG	-2.43 ± 0.32	-2.69 ± 0.34
UUGUAGCAAUAUUACGAAUG	-3.32 ± 0.41	-1.93 ± 0.29
UUGUAGCAAUAUUACGACCG	-0.716 ± 0.36	-0.156 ± 0.26
UUGUAGCAAUAUUACGACGA	-1.08 ± 0.26	-0.0034 ± 0.36
UUGUAGCAAUAUUACGACUU	-0.894 ± 0.3	0.769 ± 0.36
UUGUAGCAAUAUUACGAGUC	-3.94 ± 0.42	-2.67 ± 0.32
UUGUAGCAAUAUUACGAUUA	-0.945 ± 0.11	-0.211 ± 0.1
UUGUAGCAAUAUUACGCAGA	-2.2 ± 0.35	-0.763 ± 0.28
UUGUAGCAAUAUUACGCCGC		-2.68 ± 0.4
UUGUAGCAAUAUUACGCCUA	-0.297 ± 0.12	0.0606 ± 0.13
UUGUAGCAAUAUUACGCCUC	-2.07 ± 0.48	
UUGUAGCAAUAUUACGCCUU	-0.585 ± 0.17	0.0387 ± 0.17
UUGUAGCAAUAUUACGCUUG	-0.622 ± 0.12	-0.277 ± 0.13
UUGUAGCAAUAUUACGCUUU		-2.81 ± 0.31
UUGUAGCAAUAUUACGGAGA		-2.21 ± 0.42
UUGUAGCAAUAUUACGGAUC	-3.53 ± 0.3	-2.48 ± 0.26
UUGUAGCAAUAUUACGGCCU	-0.844 ± 0.2	-0.408 ± 0.25
UUGUAGCAAUAUUACGGGCC		-1.69 ± 0.38
UUGUAGCAAUAUUACGGUGU	-2.41 ± 0.42	-2.3 ± 0.26

Sequence	self-splicing fitness (ln) (30 °C)	self-splicing fitness (ln) (37 °C)
UUGUAGCAAUAUUACGGUUA	-1.41 ± 0.14	-0.784 ± 0.13
UUGUAGCAAUAUUACGUAGC	-3.44 ± 0.31	-2.87 ± 0.25
UUGUAGCAAUAUUACGUCAG	-1.12 ± 0.22	-0.45 ± 0.19
UUGUAGCAAUAUUACGUGCA	-2.4 ± 0.15	-1.14 ± 0.18
UUGUAGCAAUAUUACGUGUC	-3.17 ± 0.15	
UUUAAGCAAUAUUACGAAUC	-2.96 ± 0.28	-1.04 ± 0.25
UUUAAGCAAUAUUACGAGCA	-1.38 ± 0.21	-0.686 ± 0.22
UUUAAGCAAUAUUACGAGCU	-2.94 ± 0.22	-0.0484 ± 0.17
UUUAAGCAAUAUUACGCACA	-0.157 ± 0.068	0.181 ± 0.086
UUUAAGCAAUAUUACGCCAU		-2.36 ± 0.29
UUUAAGCAAUAUUACGCCGU	-1.49 ± 0.41	-1.84 ± 0.27
UUUAAGCAAUAUUACGCUAG	-1.54 ± 0.15	-0.671 ± 0.2
UUUAAGCAAUAUUACGCUGA	-2.47 ± 0.2	-0.978 ± 0.15
UUUAAGCAAUAUUACGCUUC	-2.24 ± 0.35	
UUUAAGCAAUAUUACGGAAU	-3.63 ± 0.26	-2.36 ± 0.33
UUUAAGCAAUAUUACGGCCG	-0.19 ± 0.21	-0.0514 ± 0.26
UUUAAGCAAUAUUACGGCGC	-1.15 ± 0.17	-0.784 ± 0.23
UUUAAGCAAUAUUACGGCUU	-1.8 ± 0.14	-1.86 ± 0.27
UUUAAGCAAUAUUACGGGAC	-1.77 ± 0.16	-2 ± 0.42
UUUAAGCAAUAUUACGGGCU	-2.91 ± 0.3	-2.18 ± 0.3
UUUAAGCAAUAUUACGGUGA	-1.11 ± 0.11	-0.554 ± 0.12
UUUAAGCAAUAUUACGGUGU	-3.85 ± 0.28	-2.3 ± 0.35
UUUAAGCAAUAUUACGUAAU	-2.15 ± 0.11	-1.74 ± 0.12
UUUAAGCAAUAUUACGUACA	-0.498 ± 0.12	0.0487 ± 0.14
UUUAAGCAAUAUUACGUCAG	-0.728 ± 0.12	-0.571 ± 0.12
UUUAAGCAAUAUUACGUGAC	-3.33 ± 0.21	-2.11 ± 0.21
UUUAAGCAAUAUUACGUGAU	-2.59 ± 0.15	-1.67 ± 0.21

Sequence	self-splicing fitness (ln) (30 °C)	self-splicing fitness (ln) (37 °C)
UUUAAGCAAUAUUACGUGGG	-2.92 ± 0.13	-2.1 ± 0.17
UUUAAGCAAUAUUACGUUUC	-3.96 ± 0.35	-3.19 ± 0.4
UUUAAGCAAUAUUACGUUUU	-3.93 ± 0.2	-1.22 ± 0.16
UUUCAGCAAUAUUACGAAAC		-2.53 ± 0.3
UUUCAGCAAUAUUACGAGCA	-1.41 ± 0.14	-0.671 ± 0.12
UUUCAGCAAUAUUACGAUCA	0.131 ± 0.14	0.086 ± 0.14
UUUCAGCAAUAUUACGAUGU	-2.13 ± 0.13	-1.47 ± 0.15
UUUCAGCAAUAUUACGCAAA	-2.1 ± 0.15	-0.378 ± 0.13
UUUCAGCAAUAUUACGCAGU	-4.25 ± 0.31	-1.59 ± 0.17
UUUCAGCAAUAUUACGCGAC	-2.9 ± 0.37	
UUUCAGCAAUAUUACGCUAA	-1.25 ± 0.18	-0.815 ± 0.17
UUUCAGCAAUAUUACGCUUU	-2.69 ± 0.14	-1.52 ± 0.13
UUUCAGCAAUAUUACGGAAC	-1.24 ± 0.22	
UUUCAGCAAUAUUACGGACU	-0.982 ± 0.13	-0.184 ± 0.11
UUUCAGCAAUAUUACGGAGA	-1.26 ± 0.14	-1.13 ± 0.22
UUUCAGCAAUAUUACGGAUG	-0.64 ± 0.064	0.256 ± 0.096
UUUCAGCAAUAUUACGGGAA	-1.96 ± 0.2	-1.93 ± 0.21
UUUCAGCAAUAUUACGGGGC	-2.91 ± 0.18	-3.35 ± 0.31
UUUCAGCAAUAUUACGGGGU	-3.58 ± 0.17	-1.68 ± 0.15
UUUCAGCAAUAUUACGGUAG	-0.521 ± 0.088	-0.526 ± 0.12
UUUCAGCAAUAUUACGUAAU	-2.89 ± 0.14	-1.58 ± 0.16
UUUCAGCAAUAUUACGUAGG	-0.515 ± 0.068	-0.741 ± 0.11
UUUCAGCAAUAUUACGUCAU	-3.32 ± 0.24	-2.47 ± 0.35
UUUCAGCAAUAUUACGUGAA	-0.761 ± 0.061	-0.17 ± 0.088
UUUCAGCAAUAUUACGUGGU	-3.84 ± 0.2	-3.02 ± 0.21
UUUGAGCAAUAUUACGAAGA	-2.31 ± 0.44	-1.55 ± 0.38
